From IntAct's records for PubMed 19966308

B1: Aquaporin-2 (Mus musculus), P56402 (parent)
chain: MWELRSIAFSRAVLAEFLATLLFVFFGLGSALQWASSPPSVLQIAVAFGLGIGTLVQALGHVSGAHINPAVTVACLVGCHVSFLRAAFYVAAQLLGAVAGAAILHEITPVEIRGDLAVNALHNNATAGQAVTVELFLTMQLVLCIFASTDERRSDNLGSPALSIGFSVTLGHLLGIYFTGCSMNPARSLAPAVVTGKFDDHWVFWIGPLVGAVIGSLLYNYLLFPSTKSLQERLAVLKGLEPDTDWEEREVRRRQSVELHSPQSLPRGSKA

Variants of: B1
Conditions: with anxa2_canlf ANXA2, Q6TEQ7
anxa2_canlf ANXA2, Q6TEQ7, sequence (Q6TEQ7 whole entry): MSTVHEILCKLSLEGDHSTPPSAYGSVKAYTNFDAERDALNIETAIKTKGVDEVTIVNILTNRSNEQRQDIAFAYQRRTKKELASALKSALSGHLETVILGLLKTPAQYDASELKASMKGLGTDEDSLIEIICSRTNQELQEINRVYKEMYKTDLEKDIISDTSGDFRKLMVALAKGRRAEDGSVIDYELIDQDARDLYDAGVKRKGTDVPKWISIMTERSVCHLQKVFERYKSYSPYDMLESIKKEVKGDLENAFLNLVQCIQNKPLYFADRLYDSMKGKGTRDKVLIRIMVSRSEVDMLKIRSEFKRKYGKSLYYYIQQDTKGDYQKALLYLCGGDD

effect of a mutation on the interaction	Variant
increasing interaction	MWELRSIAFSRAVLAEFLATLLFVFFGLGSALQWASSPPSVLQIAVAFGLGIGTLVQALGHVSGAHINPAVTVACLVGCHVSFLRAAFYVAAQLLGAVAGAAILHEITPVEIRGDLAVNALHNNATAGQAVTVELFLTMQLVLCIFASTDERRSDNLGSPALSIGFSVTLGHLLGIYFTGCSMNPARSLAPAVVTGKFDDHWVFWIGPLVGAVIGSLLYNYLLFPSTKSLQERLAVLKGLEPDTDWEEREVRRRQAVELHSPQSLPRGSKA [S256A]

Variants of: B1
Conditions: with hsp71_canlf HSPA1, Q7YQC6
hsp71_canlf HSPA1, Q7YQC6, sequence (Q7YQC6 whole entry): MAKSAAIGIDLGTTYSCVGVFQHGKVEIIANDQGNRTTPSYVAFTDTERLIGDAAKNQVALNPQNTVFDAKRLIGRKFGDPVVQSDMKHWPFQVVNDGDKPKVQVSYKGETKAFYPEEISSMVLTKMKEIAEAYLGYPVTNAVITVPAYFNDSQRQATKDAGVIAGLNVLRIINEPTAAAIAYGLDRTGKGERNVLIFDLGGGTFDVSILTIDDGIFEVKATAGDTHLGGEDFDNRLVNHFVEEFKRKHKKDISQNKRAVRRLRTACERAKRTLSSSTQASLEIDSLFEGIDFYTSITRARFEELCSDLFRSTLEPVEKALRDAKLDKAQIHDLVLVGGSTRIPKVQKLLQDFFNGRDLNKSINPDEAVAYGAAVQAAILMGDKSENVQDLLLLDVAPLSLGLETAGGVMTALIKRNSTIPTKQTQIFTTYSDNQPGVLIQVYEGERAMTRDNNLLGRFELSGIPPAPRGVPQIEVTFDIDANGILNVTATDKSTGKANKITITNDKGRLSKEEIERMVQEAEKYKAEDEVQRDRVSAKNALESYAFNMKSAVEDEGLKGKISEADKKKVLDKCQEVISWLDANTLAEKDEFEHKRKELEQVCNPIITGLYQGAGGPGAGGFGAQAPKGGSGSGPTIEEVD

effect of a mutation on the interaction	Variant
decreasing interaction	MWELRSIAFSRAVLAEFLATLLFVFFGLGSALQWASSPPSVLQIAVAFGLGIGTLVQALGHVSGAHINPAVTVACLVGCHVSFLRAAFYVAAQLLGAVAGAAILHEITPVEIRGDLAVNALHNNATAGQAVTVELFLTMQLVLCIFASTDERRSDNLGSPALSIGFSVTLGHLLGIYFTGCSMNPARSLAPAVVTGKFDDHWVFWIGPLVGAVIGSLLYNYLLFPSTKSLQERLAVLKGLEPDTDWEEREVRRRQSVELHSPQSLPRGDKA [S269D]
